Data on 1 substance can be found in article PMC11315126.

The target of this assay is GST-TrbBWT (not stated | E. coli F plasmid) (UniProt P18035). Kind of assay: SEC-MALS; SEC-MALS-SAXS; Superdex 200 10/300 Increase, 0.6 mL/min, 5.5 mg/mL loaded, 20 mM HEPES pH 7.0, 100 mM NaCl, 5% glycerol, 0.05% NP40, 20 °C. A general note: In gel filtration, larger molecules generally elute earlier.

Consider GST-TrbBWT (from UniProt P18035 23-181), for which the stoichiometry N was determined as 2.

In general, stoichiometry N refers to the number of molecules, sites or subunits per partner or assembly.
